# From article PMC10581125
# Molecular target: Klebsiella phage GH-K3-derived depolymerase Depo32 (Klebsiella phage GH-K3)
# Experiment: cryo-EM structure; Depo32 purified by size exclusion chromatography, 0.5-1.0 mg/mL, on glow-discharged C-flat carbon grids; 2.46 Å nonsymmetrized and 2.32 Å C3-symmetrized maps; homotrimer
substance,measurement,value
Klebsiella phage GH-K3-derived depolymerase Depo32 (enzyme),stoichiometry N,3
